Like-named read-outs stand apart in the source and are kept apart here.
What was measured:
[1] = biological target: human coagulation factor X (FX), full-length zymogen (human) (UniProt P00742)
[2] = biological target: human coagulation factor X (FX), full-length zymogen (human) (UniProt P00742); assay: SPR (Biacore T100); human FX immobilised on CM5 chip, inhibitor injected; heterogeneous ligand model
[3] = biological target: mouse coagulation factor X (mouse) (UniProt O88947); assay: SPR (Biacore T100); mouse FX immobilised on CM5 chip, inhibitor injected; heterogeneous ligand model
mouse coagulation factor X (mouse), sequence (O88947 41-481 limits assumed): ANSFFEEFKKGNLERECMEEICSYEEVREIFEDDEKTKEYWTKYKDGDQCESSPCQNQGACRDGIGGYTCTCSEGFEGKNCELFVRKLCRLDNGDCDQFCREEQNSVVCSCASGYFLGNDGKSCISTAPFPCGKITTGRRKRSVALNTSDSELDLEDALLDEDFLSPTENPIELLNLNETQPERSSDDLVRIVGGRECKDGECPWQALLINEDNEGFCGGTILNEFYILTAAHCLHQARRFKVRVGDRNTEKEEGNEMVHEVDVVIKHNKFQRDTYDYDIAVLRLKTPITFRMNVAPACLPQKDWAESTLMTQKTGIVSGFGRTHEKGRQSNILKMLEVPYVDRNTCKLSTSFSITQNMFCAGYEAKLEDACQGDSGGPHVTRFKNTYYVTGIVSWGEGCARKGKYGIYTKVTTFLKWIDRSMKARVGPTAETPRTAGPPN

Ixolaris, 12 kDa two-Kunitz domain protein isolated from tick salivary gland, sequence (Q964Q0 27-165 limits assumed): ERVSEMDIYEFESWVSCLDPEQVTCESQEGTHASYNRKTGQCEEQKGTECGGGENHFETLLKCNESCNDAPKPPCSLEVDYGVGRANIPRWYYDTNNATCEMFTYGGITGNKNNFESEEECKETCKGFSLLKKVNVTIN
human coagulation factor X (FX), full-length zymogen (human), sequence (P00742 41-488 limits assumed): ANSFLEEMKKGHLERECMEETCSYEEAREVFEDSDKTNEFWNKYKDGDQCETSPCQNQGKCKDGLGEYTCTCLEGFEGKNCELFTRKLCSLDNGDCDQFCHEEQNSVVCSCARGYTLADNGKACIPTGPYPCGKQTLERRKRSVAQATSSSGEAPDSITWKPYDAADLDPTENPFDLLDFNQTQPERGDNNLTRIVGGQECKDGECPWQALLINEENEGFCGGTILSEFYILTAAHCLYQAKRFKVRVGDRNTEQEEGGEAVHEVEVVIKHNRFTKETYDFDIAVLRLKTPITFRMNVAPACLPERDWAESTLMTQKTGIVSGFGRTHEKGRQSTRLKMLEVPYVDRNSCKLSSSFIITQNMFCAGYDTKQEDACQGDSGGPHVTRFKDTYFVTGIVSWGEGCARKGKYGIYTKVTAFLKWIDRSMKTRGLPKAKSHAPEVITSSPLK

| Substance | Kd [1] | koff [1] | kon [1] | Kd [2] | koff [2] | kon [2] | Kd [3] | koff [3] | kon [3] |
| --- | --- | --- | --- | --- | --- | --- | --- | --- | --- |
| Ixolaris, 12 kDa two-Kunitz domain protein isolated from tick salivary gland (from UniProt Q964Q0 27-165) (other; other documents disagree on this pair) | 1.3 nM | 0.000175 s⁻¹ | 135000 M⁻¹ s⁻¹ | – | – | – | – | – | – |
| nematode anticoagulant peptide-2 (NAPc2) | – | – | – | 0.0728 nM | 0.000623 s⁻¹ | 8.6e+06 M⁻¹ s⁻¹ | 17 nM | 0.31 s⁻¹ | 1.8e+07 M⁻¹ s⁻¹ |

From patent US20110104788A1
